From publication PMC5517500, “Cyclic di-GMP regulates Mycobacterium tuberculosis resistance to ethionamide” (Scientific Reports, 2017)

T1: Ycdc (Escherichia coli, UniProt P0ACU2)
T1 construct: gene rutR
T1 sequence (P0ACU2 1-212): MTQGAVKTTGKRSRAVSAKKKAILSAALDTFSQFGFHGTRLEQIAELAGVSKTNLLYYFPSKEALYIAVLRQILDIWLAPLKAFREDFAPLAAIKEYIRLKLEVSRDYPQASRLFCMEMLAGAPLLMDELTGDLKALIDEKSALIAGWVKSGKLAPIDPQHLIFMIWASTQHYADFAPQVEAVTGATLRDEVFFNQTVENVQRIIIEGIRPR


Legend:
Ycdc = target: T1, Ycdc; assay: incubation with bio-c-di-GMP (Supplementary Fig. S4b); type: binding
EthR [1] = target: T2, EthR (Mycobacterium tuberculosis H37Rv, UniProt P9WMC1 1-216); assay: BLI; no c-di-GMP; conditions: protein: recombinant; tags: 6xHis (E. coli, pET28a) or GST (yeast); chain copies: 2; label: biotin on second strand (Ms6440pr)
T2 sequence (P9WMC1 whole entry): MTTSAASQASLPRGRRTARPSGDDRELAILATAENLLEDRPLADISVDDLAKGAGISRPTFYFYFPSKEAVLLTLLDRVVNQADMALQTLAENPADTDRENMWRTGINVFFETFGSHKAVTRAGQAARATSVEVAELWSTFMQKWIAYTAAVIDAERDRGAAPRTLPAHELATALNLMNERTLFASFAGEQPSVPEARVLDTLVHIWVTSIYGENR

EthR [2] = target: T2, EthR; assay: BLI; 50 uM c-di-GMP; conditions: protein: recombinant; tags: 6xHis (E. coli, pET28a) or GST (yeast); chain copies: 2; label: biotin on second strand (Ms6440pr)

| Molecule | incubation with bio-c-di-GMP (Supplementary Fig. S4b) (Ycdc) | Kd (EthR [1]) | Kd (EthR [2]) |
| --- | --- | --- | --- |
| Nc1nc2c(ncn2[C@@H]2O[C@@H]3COP(=O)(O)O[C@H]4[C@@H](O)[C@H](n5cnc6c(=O)[nH]c(N)nc65)O[C@@H]4COP(=O)(O)O[C@H]3[C@H]2O)c(=O)[nH]1 [c-di-GMP] | we incubated Escherichia coli Ycdc with bio-c-di-GMP, the result clearly showed that they bind each other | – | – |
| etha promoter DNA (dsDNA) DNA 1: CGGTCATGGATCCACGCTATCAACGTAATGTCGAGGCCGTCAACGAGATGTCGACACTATCGA DNA 2: CTGACTGGCCGCGGAGGTGGTCACCCTGGCAGCTTACTACGTGTCGATAGATGTCGACATCTCGTTGACGG | – | 1340 nM | 1120 nM |
